Test results as given in article PMC9290431.
Where “and” joins values, the source holds several entries; their conditions need not be identical. Equal entries are not always repeated. Where two headings read alike, the source gives them in different places.

Key:
TDP-43 NTD-NLS (human) [1] = assay: AUC
TDP-43 NTD-NLS (human) [2] = assay: AUC; remark: listed apart in the source

TDP-43 NTD-NLS (domain or fragment)
stoichiometry N (TDP-43 NTD-NLS (human) [1]): 8
stoichiometry N (TDP-43 NTD-NLS (human) [2]): 2 and 4
